Values belong to the binder of their own block, whether it stands above or below them.
Experiments:
[1] = target: T1, recombinant B7H3-His protein (UniProt Q5ZPR3 29-461, limits assumed); experiment: MSD plate assay, plate-bound B7H3-His, detection with anti-BTN3A1 antibody
T1 construct: not shown: His tag
T1 sequence (looked up): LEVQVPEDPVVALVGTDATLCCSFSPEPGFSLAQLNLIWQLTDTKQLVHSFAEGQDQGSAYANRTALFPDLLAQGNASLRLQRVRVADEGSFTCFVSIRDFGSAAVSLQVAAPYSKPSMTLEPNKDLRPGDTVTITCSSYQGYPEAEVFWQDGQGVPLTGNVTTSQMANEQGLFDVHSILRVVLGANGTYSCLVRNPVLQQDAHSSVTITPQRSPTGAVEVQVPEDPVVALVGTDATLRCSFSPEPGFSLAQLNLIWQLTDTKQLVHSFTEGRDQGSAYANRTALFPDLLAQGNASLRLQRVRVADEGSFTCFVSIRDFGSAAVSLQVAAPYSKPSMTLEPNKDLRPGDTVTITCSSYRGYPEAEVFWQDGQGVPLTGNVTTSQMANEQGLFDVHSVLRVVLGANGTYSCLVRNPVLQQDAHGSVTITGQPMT

[2] = target: T2, recombinant FAP-His protein (UniProt Q12884 26-760); experiment: MSD plate assay, plate-bound FAP-His, detection with anti-BTN3A1 antibody
T2 construct: not shown: His tag
T2 sequence (Q12884 26-760 limits assumed): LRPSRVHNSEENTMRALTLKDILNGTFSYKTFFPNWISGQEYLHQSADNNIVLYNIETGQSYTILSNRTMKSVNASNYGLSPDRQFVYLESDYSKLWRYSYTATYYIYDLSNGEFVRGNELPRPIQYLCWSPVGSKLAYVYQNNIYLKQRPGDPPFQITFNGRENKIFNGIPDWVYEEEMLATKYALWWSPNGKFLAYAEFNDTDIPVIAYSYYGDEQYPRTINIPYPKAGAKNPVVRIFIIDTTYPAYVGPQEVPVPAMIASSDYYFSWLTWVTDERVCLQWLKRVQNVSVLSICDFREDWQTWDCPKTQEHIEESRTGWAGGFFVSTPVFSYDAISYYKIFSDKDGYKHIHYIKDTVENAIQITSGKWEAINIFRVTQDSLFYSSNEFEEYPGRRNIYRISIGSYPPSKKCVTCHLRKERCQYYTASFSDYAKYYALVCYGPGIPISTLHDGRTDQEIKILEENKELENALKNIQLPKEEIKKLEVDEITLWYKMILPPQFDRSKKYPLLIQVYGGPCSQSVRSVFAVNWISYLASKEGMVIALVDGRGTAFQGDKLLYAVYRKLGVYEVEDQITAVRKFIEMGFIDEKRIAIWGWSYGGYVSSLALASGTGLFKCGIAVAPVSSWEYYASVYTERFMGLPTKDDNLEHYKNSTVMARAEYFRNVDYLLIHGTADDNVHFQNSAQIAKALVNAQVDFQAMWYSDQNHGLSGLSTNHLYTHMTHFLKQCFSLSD

[3] = target: T3, CD19 expressed on cells (Daudi, Raji, K562-CD19) (human, UniProt P15391 20-556); experiment: flow cytometry on Daudi cells
T3 construct: whole, on cells
T3 sequence (looked up): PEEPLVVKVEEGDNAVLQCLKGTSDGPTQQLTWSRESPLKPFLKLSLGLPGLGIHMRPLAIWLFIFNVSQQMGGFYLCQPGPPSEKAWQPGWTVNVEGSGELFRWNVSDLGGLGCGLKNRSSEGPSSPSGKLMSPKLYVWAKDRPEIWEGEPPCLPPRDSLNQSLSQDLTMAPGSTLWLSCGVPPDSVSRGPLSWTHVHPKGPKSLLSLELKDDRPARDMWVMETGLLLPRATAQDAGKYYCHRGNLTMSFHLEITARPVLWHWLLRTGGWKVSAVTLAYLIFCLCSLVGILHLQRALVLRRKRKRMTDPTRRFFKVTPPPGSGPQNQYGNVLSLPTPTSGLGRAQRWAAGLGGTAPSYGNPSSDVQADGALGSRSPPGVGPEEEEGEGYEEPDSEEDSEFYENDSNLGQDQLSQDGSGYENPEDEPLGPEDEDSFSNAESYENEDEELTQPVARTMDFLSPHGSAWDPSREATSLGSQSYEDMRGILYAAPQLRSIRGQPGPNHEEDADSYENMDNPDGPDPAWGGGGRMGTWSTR

[4] = target: T4, B7H3 expressed on cells (OV-90, OVCAR3) (human, UniProt Q5ZPR3 29-534); experiment: flow cytometry on OV-90 cells
T4 construct: whole, on cells; also called B7H3+ OV90 tumor cells; B7H3+ OVCAR3 cells
T4 sequence (looked up): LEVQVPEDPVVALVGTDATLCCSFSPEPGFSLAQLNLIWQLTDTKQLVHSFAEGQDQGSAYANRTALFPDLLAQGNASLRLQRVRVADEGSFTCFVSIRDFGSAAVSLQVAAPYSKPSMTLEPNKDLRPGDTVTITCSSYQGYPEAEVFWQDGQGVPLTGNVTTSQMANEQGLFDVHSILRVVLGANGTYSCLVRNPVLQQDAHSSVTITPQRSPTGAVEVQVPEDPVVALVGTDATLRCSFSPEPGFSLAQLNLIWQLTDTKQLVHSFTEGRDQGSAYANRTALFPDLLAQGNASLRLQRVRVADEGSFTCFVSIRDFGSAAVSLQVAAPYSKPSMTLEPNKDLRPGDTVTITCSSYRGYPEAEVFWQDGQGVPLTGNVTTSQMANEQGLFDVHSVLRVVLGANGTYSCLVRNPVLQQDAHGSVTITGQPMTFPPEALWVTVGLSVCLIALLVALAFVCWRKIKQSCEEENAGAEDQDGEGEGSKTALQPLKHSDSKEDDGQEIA

[5] = target: T3, CD19 expressed on cells (Daudi, Raji, …); experiment: flow cytometry on RAJI cells (B7H3-negative, CD19-expressing), AF647 anti-Fc detection

binding result [1]: no binding
binding result [2]: no binding
binding result [3]: binds
B1: BTN2A1/3A1-Fc-CD19scFv heterodimeric protein (Fc fusion)
chain 1: QFIVVGPTDPILATVGENTTLRCHLSPEKNAEDMEVRWFRSQFSPAVFVYKGGRERTEEQMEEYRGRTTFVSKDISRGSVALVIHNITAQENGTYRCYFQEGRSYDEAILHLVVAGLGSKPLISMRGHEDGGIRLECISRGWYPKPLTVWRDPYGGVAPALKEVSMPDADGLFMVTTAVIIRDKSVRNMSCSINNTLLGQKKESVIFIPESFMPSVSPCAGSGSRKGGKRGSKYGPPCPPCPAPEFLGGPSVFLFPPKPKDQLMISRTPEVTCVVVDVSQEDPEVQFNWYVDGVEVHNAKTKPREEQFNSTYRVVSVLTVLHQDWLSGKEYKCKVSSKGLPSSIEKTISNATGQPREPQVYTLPPSQEEMTKNQVSLTCLVKGFYPSDIAVEWESNGQPENNYKTTPPVLDSDGSFFLYSRLTVDKSRWQEGNVFSCSVLHEALHNHYTQKSLSLSLGKDEGGEDGSDIQMTQTTSSLSASLGDRVTISCRASQDISKYLNWYQQKPDGTVKLLIYHTSRLHSGVPSRFSGSGSGTDYSLTISNLEQEDIATYFCQQGNTLPYTFGGGTKLEITGGGSGGGSGGGSEVKLQESGPGLVAPSQSLSVTCTVSGVSLPDYGVSWIRQPPRKGLEWLGVIWGSETTYYNSALKSRLTIIKDNSKSQVFLKMNSLQTDDTAIYYCAKHYYYGGSYAMDYWGQGTSVTVSS
chain 2: not shown
notes: Secreted from Expi293 or CHO cells and purified; also called BTN2A1/3A1-Fc-CD19scFv3; BTN2A1/3A1-Fc-19scFv

binding result [4]: binds
binding result [5]: no binding
B2: BTN2A1/3A1-Fc-B7H3scFv heterodimeric protein (Fc fusion)
chain 1: QFIVVGPTDPILATVGENTTLRCHLSPEKNAEDMEVRWFRSQFSPAVFVYKGGRERTEEQMEEYRGRTTFVSKDISRGSVALVIHNITAQENGTYRCYFQEGRSYDEAILHLVVAGLGSKPLISMRGHEDGGIRLECISRGWYPKPLTVWRDPYGGVAPALKEVSMPDADGLFMVTTAVIIRDKSVRNMSCSINNTLLGQKKESVIFIPESFMPSVSPCAGSGSRKGGKRGSKYGPPCPPCPAPEFLGGPSVFLFPPKPKDQLMISRTPEVTCVVVDVSQEDPEVQFNWYVDGVEVHNAKTKPREEQFNSTYRVVSVLTVLHQDWLSGKEYKCKVSSKGLPSSIEKTISNATGQPREPQVYTLPPSQEEMTKNQVSLTCLVKGFYPSDIAVEWESNGQPENNYKTTPPVLDSDGSFFLYSRLTVDKSRWQEGNVFSCSVLHEALHNHYTQKSLSLSLGKDEGGEDGSDIQMTQSPSFLSASVGDRVTITCKASQNVDTNVAWYQQKPGKAPKALIYSASYRYSGVPSRFSGSGSGTDFTLTISSLQPEDFAEYFCQQYNNYPFTFGQGTKLEIKSSGGGGSGGGGSGGGGSEVQLVESGGGLVQPGGSLRLSCAASGFTFSSFGMHWVRQAPGKGLEWVAYISSGSGTIYYADTVKGRFTISRDNAKNSLYLQMNSLRAEDTAVYYCARHGYRYEGFDYWGQGTTVTVSS
chain 2: not shown
notes: Produced by transient co-transfection of ExpiCHO cells; also called BTN2A1/3A1-Fc-B7H3scFv/B7H3scFv

From patent US20240148828A1 (SHATTUCK LABS, published 2024)
